Source: a protein production outcome set (Wang et al. 2014)

Assay: label from the status in PepcDB records

Sequence | protein production
MDAKARNCLLQHREALEKDIKTSYIMDHMISDGFLTISEEEKVRNEPTQQQRAAMLIKMILKKDNDSYVSFYNALLHEGYKDLAALLHDGIPVVSSSSGKDSVSGITSYVRTVLCEGGVPQRPVVFVTRKKLVNAIQQKLSKLKGEPGWVTIHGMAGCGKSVLAAEAVRDHSLLEGCFPGGVHWVSVGKQDKSGLLMKLQNLCTRLDQDESFSQRLPLNIEEAKDRLRILMLRKHPRSLLILDDVWDSWVLKAFDSQCQILLTTRDKSVTDSVMGPKYVVPVESSLGKEKGLEILSLFVNMKKADLPEQAHSIIKECKGSPLVVSLIGALLRDFPNRWEYYLKQLQNKQFKRIRKSSSYDYEALDEAMSISVEMLREDIKDYYTDLSILQKDVKVPTKVLCILWDMETEEVEDILQEFVNKSLLFCDRNGKSFRYYLHDLQVDFLTEKNCSQLQDLHKKIITQFQRYHQPHTLSPDQEDCMYWYNFLAYHMASAKMHKELCALMFSLDWIKAKTELVGPAHLIHEFVEYRHILDEKDCAVSENFQEFLSLNGHLLGRQPFPNIVQLGLCEPETSEVYQQAKLQAKQEVDNGMLYLEWINKKNITNLSRLVVRPHTDAVYHACFSEDGQRIASCGADKTLQVFKAETGEKLLEIKAHEDEVLCCAFSTDDRFIATCSVDKKVKIWNSMTGELVHTYDEHSEQVNCCHFTNSSHHLLLATGSSDCFLKLWDLNQKECRNTMFGHTNSVNHCRFSPDDKLLASCSADGTLKLWDATSANERKSINVKQFFLNLEDPQEDMEVIVKCCSWSADGARIMVAAKNKIFLFDIHTSGLLGEIHTGHHSTIQYCDFSPQNHLAVVALSQYCVELWNTDSRSKVADCRGHLSWVHGVMFSPDGSSFLTSSDDQTIRLWETKKVCKNSAVMLKQEVDVVFQENEVMVLAVDHIRRLQLINGRTGQIDYLTEAQVSCCCLSPHLQYIAFGDENGAIEILELVNNRIFQSRFQHKKTVWHIQFTADEKTLISSSDDAEIQVWNWQLDKCIFLRGHQETVKDFRLLKNSRLLSWSFDGTVKVWNIITGNKEKDFVCHQGTVLSCDISHDATKFSSTSADKTAKIWSFDLLLPLHELRGHNGCVRCSAFSVDSTLLATGDDNGEIRIWNVSNGELLHLCAPLSEEGAATHGGWVTDLCFSPDGKMLISAGGYIKWWNVVTGESSQTFYTNGTNLKKIHVSPDFKTYVTVDNLGILYILQTLE | failed
MDAKETSATDLKRPREEDDNGGAATMETENGDQKKEPACFSTVIPGWFSEMSPMWPGEAHSLKVEKVLFQGKSDYQDVIVFQSATYGKVLVLDGVIQLTERDECAYQEMITHLPLCSIPNPKKVLVIGGGDGGVLREVARHASIEQIDMCEIDKMVVDVSKQFFPDVAIGYEDPRVNLVIGDGVAFLKNAAEGSYDAVIVDSSDPIGPAKELFEKPFFQSVARALRPGGVVCTQAESLWLHMDIIEDIVSNCREIFKGSVNYAWTSVPTYPSGVIGFMLCSTEGPDVDFKHPLNPIDESSSKSNGPLKFYNAEIHSAAFCLPSFAKKVIESKAN | failed
MDALIMAGGKGTRMGGVEKPLIKLCGRCLIDYVVSPLLKSKVNNIFIATSPNTPKTKEYINSAYKDYKNIVVIDTSGKGYIEDLNECIGYFSEPFLVVSSDLINLKSKIINSIVDYFYCIKAKTPDVEALAVMIPKEKYPNPSIDFNGLVPAGINVVSPKHGYQKEEIMVIDELIFNINTKDDLKLAEMLLKKDGL | failed
MDANEKKEVIKKRFQEIAMSGGTCCSGGGCCGDSSSSDISRAIGYSEADIEAVPDANMGLGCGNPASIAELKPGDIVLDLGSGAGFDCFLAAQKVGNSGKVIGVDMTPEMVEKVQANARKYGYSNVEFRQGDIEALPVEDSSVDVIISNCVINLAPDKEKVFREAFRVLKLGGRLYISDLVLLDELPEDLKNDRDLLAGCVAGAVLKEEYLKLLKRAGFSVEILAEDPDISKSQYKGLPVESLKLKAWVLEHHHHHH | not failed
MDAVVVLCYLLLALPTIIPSVVDGKWLVVAILLLIAIALFFRRPFPLQVVLAVSLLEIAATILNPWGSNVSAGLWFALYAVASLRKRALALVVFAVASLPLSLLYLFMWTSPSEMDNLQDVPENFHLINNIATAVTIMLSNLLATGIGISVRQRREHEAEIAAWAARTTQLGKVTERNRIAREMHDVVAHSLTVMISLSDGAAVVVKKDPERAGDVLGELSRTGRAALADMRRVLGVLRDDSGRPAPLTPLESGQNLAKLLDGFRTAGLPLHYAHTGPGLPADPAFELTVYRIVQESLTNVLRYGRSLSRVDVQVARDGDLVTIDVLDDGRGTREGGSESVGSLGTGQGIAGMNERAGIYAGIVTAGPGKRGGWAVHAELRWNGEKGES | failed
MDCYLNAANSFARILDEYQTYNSLVVAFDFDDTVYDFHKKGRLYADVVTLLRDLKKINCHLICWTGQEDLTFVKNYLMENNIPFDDINENPPFHVSSSKKVYANVYLDDRAGLKQVFGELTQLLQHESIRIKSV | failed
MDDDMDIQQSYPFTVEVMPVPNKVVKGQTVEIRCELKKEGDFSGTLYTIRYFQFEGEGSLKMDNGITFLPNDRYLLENEKFRLYYTAAGDEAHNFIVVVEDNFSNSYELEFDFNNRNVKDDDLTIVPIGNFSPLLKLEHHHHHH | failed
MDDGTGAKRTKATVLQRVSSVLNADAHDATALDGGEVGSVYRVSFHDRPDVAVKVDDSPLGIEAAMLQSLDRDTPLPVPEVLHVEPELLVLSFIRGDGRFDERAERDLARHVAALHDTSADVFGFPFDTLSGPFSQSNPWTDSWIDFFRAQRLLPFATAARNEGALPAGEFDRVQRLAETLDARLVEPATPSLLHGDIHPGNAVVADGTVRAVLDPAIYFGHAEVDLAYVDRLDSIGAAFYDEYRQHRDISAGYFEERRDVYVAFHALENVRFFGEDELPRLERALDRLGM | failed
MDDIDSLILIGVLIALTAFFVASEFAIVRVRRSRIDQLITEGNKRAILARRVITDLDEYLSASQLGITLTSIGLGVLGEPAFERLLHPLFEPLGLPDSVSHAVSFAVAYGLITFLHVVVGELAPKTVAIQKAEQLTLLIAGPLRLFYLLLFPFIWILNGSARLLCGMFGLKPASEHDGSHSEEELRMLLSESLKNGEINPSEYKYVNKIFEFDNRIAKEIMIPRKEMAAVSTEMTMAEMLEVMLKEKYTRWPVTDGDKDSVLGLVNTKHLFSDLLFMTEEERMKMTIHPYVRPVIEVIETIPVHDLLIKMQRERIHMAILSDEYGGTSGLVTTEDILEEIVGEIRDEFDEDEQPLIQKLGDGHYVMDGKVRIDQVNSLLGASIQEDVDTIGGLILKENIDIEAGESIRIGSYTIKVLKMDGRLIKQIDIKEEAGNTTGITAHHKLPLPEPVMLNSATLSEK | failed
MDDLTNLAARLRLLEDREEIRELIARYGPLADSGDAEALSELWVEDGEYAVVGFATAKGRAAIAALIDGQTHRALMADGCAHFLGPATVTVEGDTATARCHSVVFRCVSGTFGSHRVSANRWTFRRTPAGWRAVRRENALLDGSAAARALLQFR | not failed
MDDQSGDQMRPELTMPPAEAEALRMAYEEAEVILEYGSGGSTVVAAELPGKHVTSVESDRAWARMMKAWLAANPPAEGTEVNIVWTDIGPTGDWGHPVSDAKWRSYPDYPLAVWRTEGFRHPDVVLVDGRFRVGCALATAFSITRPVTLLFDDYSQRRWQHQVEEFLGAPLMIGRLAAFQVEPQPIPPGSLMQLIRTMTSP | not failed
MDDVKDKLKGFMKKVNLSSSSGKFKGQGRVLGSSSSSSAPPVNPIQNRFNSSQAPNPTPRPKPNPNPLPEKPLSSSDQKISGSTRNPDHDPVRAPQDGFDPYGAFITSSNRSQNGYSLSMFECPICKNPFTSEEEVSVHVESCLGDTNGDESSFEKDNNDNDKSEMEKLVVVYLSGKPSESSIDVLLRLFKNIVKEPENAKFRKVRMSNAKIKEAIGDVAGGVELLELVGFELKEENDEIWAVMDVPSEEQSILINKVVGYLEKRKTESSGSSAQVMEPVAPKKIDRENGCFLVQIRVFFSVSENVASRIEVPDSFYSLSADEIKREADLRRKKIAESQLLIPRSYKEKQAKAARKRYKRSMIRVQFPDGVVLQGVFAPWEPTFALYEFVSSALKEPSLQFELLDPVLVKRRVIPHTPAPGQKPITLEDEELVPSALIRFRPIETDSLVFTGLRNELLEISEPLS | failed
MDEDGFSQCSKHFSKRGYFSGGGVCPFCLHERLSSLCPDCAHDLPCSCSSRAAVSFSPSSSSSSSSFSIFAGDISFNISGVGSVGRVASLIECEPAFRRSKSMAIPIKPDSVIDSGLDHGRSKKTSSFWRIFMGNRGDTKPAIMKKSRSVAVAGEFGFSPVPVPATGKGKGWNFPSPIKVFRQSRVSKMIFQQRSPLYRG | failed
